Laboratory results published in US20060058504A1, “Peptides capable of inducing attraction to the axonal growth and their use for treating neurodegenerative diseases” (Centre National de la Recherche Scientific (CNRS), priority 2002, published 2006).
Entries after “also recorded” stand apart in the source; their conditions may differ.

Columns and labels:
[1] = system: cortical axons repelled by Sema3A secreted from the ventral spinal cord; test: Co-culture of cortical slices and ventral spinal cord explants (axon guidance response to Sema3A); format: cell-based, mice; conditions: chimera 3 μg/ml in culture medium
Description: Blocks of cortex were dissected from P0 (postnatal day 0) to P2 mice and cut into 250 μm thick slices with a McIlwain tissue chopper. The ventral part of the cervical spinal cord was dissected and cut into 250 μm thick slices. Co-culture of cortical slices and ventral spinal cord explants were performed in a three-dimensional plasma clot, as described previously (Castellani et al., 2000). Cortical slices were oriented in the plasma clot as indicated in FIG. 1B to give to axons equivalent chances to be deflected away or towards the spinal cord explant. Purified wild-type or mutant L1Fc chimeras were added to the culture medium (3 μg/ml). Inhibitors of the guanylyl cyclase (ODQ, 10^−5 M, Sigma) and NOS (7NI, […], Sigma) were added to the culture medium, either alone or with wild-type L1Fc (3 μg/ml). After one or two days in vitro (DIV), the cultures were fixed with 4% paraformaldehyde (PFA) and analyzed by phase contrast microscopy (Axiovert 35-M, Zeiss). A qualitative guidance index was attributed to the co-cultures, to assess the degree of repulsive (negative values) or attractive (positive values) effects (Castellani et al., 2000). The index ranged from −2 (when most fibers grew away from the spinal cord explant) to +2 (when most fibers grew towards the explant), with intermediate situations (index of −1 and +1 for moderate guidance effects). An index of zero was attributed to the cultures showing no preferential growth. Quantitative analysis of axon length and number of axons growing from cortical slices was performed as described previously (Castellani et al., 2000). A proximal and a distal region, each of them covering a 600 μm-piece of cortical tissue were determined for each culture. All fibers extending from these two regions were counted and the length of the three longest fibers was measured, using computer analysis software (Visiolab 2000, Biocom). Immunofluorescence labeling of axons was performed using the mouse anti-phosphorylated neurofilament antibody SMI31 (Stemberger and Meyer Inc.), and Texas red-conjugated secondary anti-mouse antibody (see result obtained for number of axons and axonal length in the following tables 1 and 2).
It has been previously developed an assay system using explants of ventral spinal cord co-cultured with cortical axons in order to determine the factors involved in axonal repulsion and attraction (Castellani et al., 2000). Using this system we have shown that Sema3A secreted from the ventral spinal cord repels cortical axons. In the presence of soluble wild-type L1Fc chimeric protein however, repulsion is switched to attraction (Castellani et al., […]). In the present study, we aimed to identify the L1 interactions underlying the switching process. As Ig domains have been implicated in binding of Ig CAMs to many of their ligands (Brümmendorf and Rathjen, 1996) we hypothesized that they would also be required for L1 Fc-mediated switching. […] L1 Fc chimeras containing pathological missense mutations affecting specific Ig domains (De Angelis et al., 1999 and FIGS. 1A, 1B) were assessed for their ability to reverse Sema3A repulsion to attraction.

[2] = system: NP-1; test: Binding of L1Fc chimeras to NP-1 expressing COS7 cells (immunofluorescence)
Description: (§1) The mutant L1Fc chimeras were produced and purified as described previously (De Angelis et al., 1999). Briefly, COS-7 cells were transiently transfected with 10 μg DNA per 150 mm culture dish, the soluble Fc chimeric protein was allowed to accumulate in the media for 6 days and was recovered and purified by protein A-Sepharose affinity chromatography. In the binding experiments, L1Fcs were cross-linked to anti-human Fc antibodies (50 μg/ml, Jackson Immunoresearch) for 1 hr at 37° C. Binding detection to NP-1 requested concentrations of L1Fcs 10 folds higher than L1. Antibody conjugated L1-Fc protein was then incubated with monolayers of COS7 cells transiently transfected with expression vectors encoding full length human L1 or myc-tagged NP-1 where the cytoplasmic domain is deleted (gift of J. Raper, 2000 and Renzi et al., 1999). Following incubation, the cells were fixed with 4% PFA, and processed for double-immunofluorescence detection. NP-1 was detected using a mouse anti-c myc antibody (clone 9E10, Sigma) and L1 using a rat monoclonal anti-L1 antibody. Secondary antibody anti-c-myc (Texas-red conjugated anti-mouse antibodies) was used to detect NP-1, anti-L1 (Texas red conjugated anti-rat antibodies) to detect L1, and anti-Fc (FITC conjugated anti-rabbit antibodies) to detect bound L1Fc chimeras. After secondary antibody incubation, the cells were washed with PBS and mounted in Mowiol (Calbiochem).
Next, we examined the ability of the mutant L1 Fc chimeras to bind NP-1. COS7 cells were transfected with a vector encoding the extracellular and transmembrane domains of NP-1 fused to a myc tag (ANP-1, Renzi et al., J. Neurosci., 15:7870-7880, 1999), and incubated with the mutant L1Fc chimeras. Binding was detected by immunofluorescence. […] Binding of L120V, G121S and A426D L1Fcs to NP-1 is illustrated in FIG. 3.

[3] = system: F3, axonin-1 and TAX-1; conditions: F3, axonin-1 (and TAX-1 where stated); cited from earlier work
[4] = molecular target: T1, full length human L1 (Homo sapiens, UniProt P32004); test: Binding of L1Fc chimeras to COS cells expressing wild-type L1 (immunofluorescence)
T1 construct: transiently transfected with expression vectors encoding full length human L1; expressed in transfected cells; host or cells: COS7
Description: as §1
Thus, Ig CAMs F3 and TAG-1 (the rodent homologue of axonin-1) ate unlikely to be axonal receptors for L1Fc in the reversion process. […] In the present study however, mutated L1Fc proteins were required to interact with wild-type L1 expressed on growth cones. To formally exclude a role for homophilic binding of L1 in the initiation of the reversion process, it was therefore necessary to examine whether homophilic binding of the mutated L1Fc chimeras to wild-type L1 was also disrupted. Mutated L1Fcs were therefore incubated with COS7 cells transfected with full-length wild-type L1 cDNA and binding was assessed by immunofluorescence. In parallel, homophilic binding of mutant/mutant and mutant/wild-type L1Fcs was compared in a two-color FACS aggregation assay, allowing a quantitative assessment to be made (see Methods). […] Similarly, in the two color FACS assay homophilic binding was restored to 74.4% and 90.5% of wild-type levels for A426D and H210Q respectively (FIG. 2B). […] This mutation however still promoted the L1 Fc induced switching of Sema3A repulsion to attraction in the co-culture assay. Thus, the ability of L1Fc to switch Sema3A repulsion is not dependent on homophilic binding. Consequently, the trans interaction of L1Fc with L1 in the receptor complex is not required for the change in growth cone responsiveness to Sema3A.

[5] = system: L1; conditions: mutant bound to itself; cited from earlier work

T1 sequence (P32004 20-1257): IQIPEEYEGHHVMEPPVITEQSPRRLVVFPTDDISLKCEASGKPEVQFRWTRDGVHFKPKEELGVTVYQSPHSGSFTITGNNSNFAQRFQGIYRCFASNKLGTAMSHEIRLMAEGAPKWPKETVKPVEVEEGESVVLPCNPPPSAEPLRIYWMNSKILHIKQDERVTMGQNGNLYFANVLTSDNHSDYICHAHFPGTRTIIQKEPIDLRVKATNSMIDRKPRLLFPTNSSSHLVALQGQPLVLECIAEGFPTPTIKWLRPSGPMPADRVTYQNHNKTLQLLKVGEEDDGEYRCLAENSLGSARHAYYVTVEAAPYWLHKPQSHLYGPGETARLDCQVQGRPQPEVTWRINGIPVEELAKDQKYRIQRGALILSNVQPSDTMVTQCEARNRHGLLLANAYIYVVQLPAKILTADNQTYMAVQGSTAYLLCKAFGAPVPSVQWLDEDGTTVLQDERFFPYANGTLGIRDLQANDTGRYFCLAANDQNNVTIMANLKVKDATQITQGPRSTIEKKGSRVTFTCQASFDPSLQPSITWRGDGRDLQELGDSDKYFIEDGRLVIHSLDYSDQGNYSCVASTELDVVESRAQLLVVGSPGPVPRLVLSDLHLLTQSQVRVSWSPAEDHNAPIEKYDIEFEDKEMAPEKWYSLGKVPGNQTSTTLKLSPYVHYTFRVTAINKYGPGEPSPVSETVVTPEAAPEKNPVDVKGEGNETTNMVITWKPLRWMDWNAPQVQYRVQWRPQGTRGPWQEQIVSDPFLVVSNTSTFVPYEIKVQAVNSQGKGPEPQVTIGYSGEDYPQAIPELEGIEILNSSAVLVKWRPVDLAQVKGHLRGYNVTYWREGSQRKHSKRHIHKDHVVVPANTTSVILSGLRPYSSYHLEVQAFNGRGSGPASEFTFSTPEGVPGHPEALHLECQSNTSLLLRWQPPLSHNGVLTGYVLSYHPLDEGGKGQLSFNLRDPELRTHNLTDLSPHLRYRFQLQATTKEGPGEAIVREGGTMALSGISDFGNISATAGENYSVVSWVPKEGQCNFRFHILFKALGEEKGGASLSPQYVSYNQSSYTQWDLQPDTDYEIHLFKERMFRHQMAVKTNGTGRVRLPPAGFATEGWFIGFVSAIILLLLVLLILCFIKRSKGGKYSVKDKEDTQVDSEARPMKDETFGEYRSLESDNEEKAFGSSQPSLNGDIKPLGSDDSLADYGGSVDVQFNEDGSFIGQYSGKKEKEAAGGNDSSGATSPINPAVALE

Row | binding to wild-type L1 expressed in COS cells [4] | Molecule | switching of Sema3A repulsion to attraction by L1Fc chimera [1] | binding to NP-1 expressing cells [2] | effect of mutation on heterophilic binding [3] | effect of mutation on homophilic binding [5]
1 |  | E309K: L1Fc chimera with missense mutation E309K in Ig domain 3 (protein, left off: a dimerising Fc or GST) IQIPEEYEGHHVMEPPVITEQSPRRLVVFPTDDISLKCEASGKPEVQFRWTRDGVHFKPKEELGVTVYQSPHSGSFTITGNNSNFAQRFQGIYRCFASNKLGTAMSHEIRLMAEGAPKWPKETVKPVEVEEGESVVLPCNPPPSAEPLRIYWMNSKILHIKQDERVTMGQNGNLYFANVLTSDNHSDYICHAHFPGTRTIIQKEPIDLRVKATNSMIDRKPRLLFPTNSSSHLVALQGQPLVLECIAEGFPTPTIKWLRPSGPMPADRVTYQNHNKTLQLLKVGEEDDGKYRCLAENSLGSARHAYYVTVEAAPYWLHKPQSHLYGPGETARLDCQVQGRPQPEVTWRINGIPVEELAKDQKYRIQRGALILSNVQPSDTMVTQCEARNRHGLLLANAYIYVVQLPAKILTADNQTYMAVQGSTAYLLCKAFGAPVPSVQWLDEDGTTVLQDERFFPYANGTLGIRDLQANDTGRYFCLAANDQNNVTIMANLKVKDATQITQGPRSTIEKKGSRVTFTCQASFDPSLQPSITWRGDGRDLQELGDSDKYFIEDGRLVIHSLDYSDQGNYSCVASTELDVVESRAQLLVVGSPGPVPRLVLSDLHLLTQSQVRVSWSPAEDHNAPIEKYDIEFEDKEMAPEKWYSLGKVPGNQTSTTLKLSPYVHYTFRVTAINKYGPGEPSPVSETVVTPEAAPEKNPVDVKGEGNETTNMVITWKPLRWMDWNAPQVQYRVQWRPQGTRGPWQEQIVSDPFLVVSNTSTFVPYEIKVQAVNSQGKGPEPQVTIGYSGEDYPQAIPELEGIEILNSSAVLVKWRPVDLAQVKGHLRGYNVTYWREGSQRKHSKRHIHKDHVVVPANTTSVILSGLRPYSSYHLEVQAFNGRGSGPASEFTFSTPEGVPGHPEALHLECQSNTSLLLRWQPPLSHNGVLTGYVLSYHPLDEGGKGQLSFNLRDPELRTHNLTDLSPHLRYRFQLQATTKEGPGEAIVREGGTMALSGISDFGNISATAGENYSVVSWVPKEGQCNFRFHILFKALGEEKGGASLSPQYVSYNQSSYTQWDLQPDTDYEIHLFKERMFRHQMAVKTNGTGRVRLPPAGFATE | able to reverse Sema3A repulsion to attraction; also recorded: efficiently induce switching of Sema3A repulsion to attraction; also recorded: switched Sema3A from repulsion to attraction to the same extent as wild type L1Fc | bound NP-1 expressing cells | affect | 
2 | bound to wild-type L1 | A426D: L1Fc chimera with missense mutation A426D in Ig domain 5 (protein, left off: a dimerising Fc or GST) IQIPEEYEGHHVMEPPVITEQSPRRLVVFPTDDISLKCEASGKPEVQFRWTRDGVHFKPKEELGVTVYQSPHSGSFTITGNNSNFAQRFQGIYRCFASNKLGTAMSHEIRLMAEGAPKWPKETVKPVEVEEGESVVLPCNPPPSAEPLRIYWMNSKILHIKQDERVTMGQNGNLYFANVLTSDNHSDYICHAHFPGTRTIIQKEPIDLRVKATNSMIDRKPRLLFPTNSSSHLVALQGQPLVLECIAEGFPTPTIKWLRPSGPMPADRVTYQNHNKTLQLLKVGEEDDGEYRCLAENSLGSARHAYYVTVEAAPYWLHKPQSHLYGPGETARLDCQVQGRPQPEVTWRINGIPVEELAKDQKYRIQRGALILSNVQPSDTMVTQCEARNRHGLLLANAYIYVVQLPDKILTADNQTYMAVQGSTAYLLCKAFGAPVPSVQWLDEDGTTVLQDERFFPYANGTLGIRDLQANDTGRYFCLAANDQNNVTIMANLKVKDATQITQGPRSTIEKKGSRVTFTCQASFDPSLQPSITWRGDGRDLQELGDSDKYFIEDGRLVIHSLDYSDQGNYSCVASTELDVVESRAQLLVVGSPGPVPRLVLSDLHLLTQSQVRVSWSPAEDHNAPIEKYDIEFEDKEMAPEKWYSLGKVPGNQTSTTLKLSPYVHYTFRVTAINKYGPGEPSPVSETVVTPEAAPEKNPVDVKGEGNETTNMVITWKPLRWMDWNAPQVQYRVQWRPQGTRGPWQEQIVSDPFLVVSNTSTFVPYEIKVQAVNSQGKGPEPQVTIGYSGEDYPQAIPELEGIEILNSSAVLVKWRPVDLAQVKGHLRGYNVTYWREGSQRKHSKRHIHKDHVVVPANTTSVILSGLRPYSSYHLEVQAFNGRGSGPASEFTFSTPEGVPGHPEALHLECQSNTSLLLRWQPPLSHNGVLTGYVLSYHPLDEGGKGQLSFNLRDPELRTHNLTDLSPHLRYRFQLQATTKEGPGEAIVREGGTMALSGISDFGNISATAGENYSVVSWVPKEGQCNFRFHILFKALGEEKGGASLSPQYVSYNQSSYTQWDLQPDTDYEIHLFKERMFRHQMAVKTNGTGRVRLPPAGFATE | able to reverse Sema3A repulsion to attraction; also recorded: efficiently induce switching of Sema3A repulsion to attraction; also recorded: switched Sema3A from repulsion to attraction to the same extent as wild type L1Fc | bound to NP-1 expressing cells | reduce | reduce homophilic binding
